Assay results taken from patent US20230375537A1.

How the values were obtained:
[1] = target: HER2 (as partner of the 'natural' / 'original' dissociation constants) (UniProt P04626); experiment: natural dissociation constant of the bought molecule outside the sensor; method not stated
[2] = target: HER2 (as partner of the 'natural' / 'original' dissociation constants) (UniProt P04626); experiment: natural dissociation constant of the molecule outside the sensor; method not stated

Row | Substance | Kd [1] | Kd [2]
1 | Anti-Her2 Affibody Molecule (anti-Her2 affibody molecule, Abcam) (designed binder) | 0.032 nM | 
2 | Z342-EGFP-Histag (a molecule having a polyhistidine tag and an anti-HER2 affibody to which a fluorescence group EGFP is fused) (designed binder) |  | 0.106 nM
